From US20250101453A1, “METHODS OF PARTHENOGENIC HAPLOID INDUCTION AND HAPLOID CHROMOSOME DOUBLING” (PIONEER HI-BRED INTERNATIONAL, INC., priority 2022, published 2025)
Several values for one entry are separate records, joined by “and”; a condition that tells them apart may be missing. Equal values may be shown once.

B1: ZM-ODP2-(266-668):At-CBF1a: fusion protein (SEQ ID NO: 15) of truncated ZM-ODP2 and C-repeat/DRE binding factor domain At-CBF1a; expressed from plasmid RV048759 under PvEC1 promoter (protein)
chain: MDTFGQRTSIYRGVTRHRWTGRYEAHLWDNSCRREGQTRKGRQVYLGGYDKEEKAARAYDLAALKYWGATTTTNFPVSNYEKELEDMKHMTRQEFVASLRRKSSGFSRGASIYRGVTRHHQHGRWQARIGRVAGNKDLYLGTFSTQEEAAEAYDIAAIKFRGLNAVTNFDMSRYDVKSILDSSALPIGSAAKRLKEAEAAASAQHHHAGVVSYDVGRIASQLGDGGALAAAYGAHYHGAAWPTIAFQPGAASTGLYHPYAQQPMRGGGWCKQEQDHAVIAAAHSLQDLHHLNLGAAGAHDFFSAGQQAAAAAMHGLGSIDSASLEHSTGSNSVVYNGGVGDSNGASAVGGSGGGYMMPMSAAGATTTSAMVSHEQVHARAYDEAKQAAQMGYESYLVNAENNGGGGGGGSGGGGSGGGGSTCAKDIQKAAAEAALAFQDETCDTTTTNHGLDMEETMVEAIYTPEQSEGAFYMDEETMFGMPTLLDNMAEGMLLPPPSVQWNHNYDGEGDGDVSLWSY
B2: ZM-ODP2-(266-669): truncated maize Ovule Development Protein 2 polypeptide (SEQ ID NO: 2) encoded by ZM-ODP2 (TR5); expressed from plasmid RV027603 under egg cell promoter (protein)
chain: MDTFGQRTSIYRGVTRHRWTGRYEAHLWDNSCRREGQTRKGRQVYLGGYDKEEKAARAYDLAALKYWGATTTTNFPVSNYEKELEDMKHMTRQEFVASLRRKSSGFSRGASIYRGVTRHHQHGRWQARIGRVAGNKDLYLGTFSTQEEAAEAYDIAAIKFRGLNAVTNFDMSRYDVKSILDSSALPIGSAAKRLKEAEAAASAQHHHAGVVSYDVGRIASQLGDGGALAAAYGAHYHGAAWPTIAFQPGAASTGLYHPYAQQPMRGGGWCKQEQDHAVIAAAHSLQDLHHLNLGAAGAHDFFSAGQQAAAAAMHGLGSIDSASLEHSTGSNSVVYNGGVGDSNGASAVGGSGGGYMMPMSAAGATTTSAMVSHEQVHARAYDEAKQAAQMGYESYLVNAENNGGG
modifications: Zea mays
notes: expressed from plasmid RV027603 under egg cell promoter

What was measured:
[1] = chemical chromosome doubling, Frei et al. 2018; cited from earlier work
Background 2 (X08D492) = test: Haploid induction cross, haploid embryos scored by absence of paternal YFP, Background 2; assay type: in vivo, Zea mays
Protocol: (§1) The ears of the transgenic female parent plants were shoot-bagged before silk emergence to avoid any foreign pollen contamination. The silks of the donor ears were pollinated with viable pollen grains collected from the anthers of a haploid inducer parent plant, constituting a “haploid induction cross”.
(§2) Immature ears were harvested approximately 18 days after pollination, surface sterilized in 30% Clorox bleach plus 0.5% Micro detergent for 20 minutes and washed twice with sterile water. Immature embryos obtained from each donor ear comprising a biological replicate for a unique transformation event were plated on a petri dish containing 605B resting medium and incubated at 28° C. under dark conditions for 12-24 hours.
Using the methods described in Examples 2 and 3, T0 transgenic plants hemizygous for RV048759 (SEQ ID NO: 16) or RV027603 (SEQ ID NO: 7) were obtained from a population of transformed immature diploid embryos from two different genetic backgrounds. The first genetic background (hereinafter “Background 1”) was “PHR03 x PH184C” and the second genetic background (hereinafter “Background 2”) was X08D492. […]
(§3) A total of 13 unique events for RV048759 and a total of 7 unique events for RV027603 were analyzed in Background 1. A total of 13 unique events for RV048759 and a total of 11 unique events for RV027603 were analyzed in Background 2.

[2] = test system: Background 1 (PHR03 x PH184C); test: Haploid induction cross, haploid embryos scored by absence of paternal YFP, Background 1; assay type: in vivo, Zea mays
Protocol: as §1, §2
Using the methods described in Examples 2 and 3, T0 transgenic plants hemizygous for RV048759 (SEQ ID NO: 16) or RV027603 (SEQ ID NO: 7) were obtained from a population of transformed immature diploid embryos from two different genetic backgrounds. The first genetic background (hereinafter “Background 1”) was “PHR03 x PH184C” and the second genetic background (hereinafter “Background 2”) was X08D492.
The T0 transgenic plants hemizygous for RV048759 were used as female parent plants and the donor ears fertilized with pollen provided by a pollen donor. The silks of the donor ears were pollinated with viable pollen grains collected from the anthers of a haploid inducer parent plant, constituting a “haploid induction cross”.
as §3

unfertilized egg cell = test: In vivo genetic chromosome doubling: fertility (mature seed set) of self-pollinated regenerated T1 (D0) plants, Example 3; parameters: species or system Zea mays
Source text: Using the methods described in Example 2, T0 transgenic plants hemizygous for RV027603 (SEQ ID NO: 7) were obtained from a population of transformed immature diploid embryos. […] Using methods known in the art, single copy T0 plants were identified and grown to maturity. Upon the transition to flowering, the T0 plants were used as female parent plants to provide a donor ear.
as §1, §2
A total of 8 unique events for RV027603 were analyzed. Per event, two groups of haploid embryos were obtained given the hemizygous T-DNA from RV027603 inherited from the maternal plant. A first group of haploid embryos lacking inheritance of T-DNA from RV027603 was used to regenerate “null T1 plants”. A second group of haploid embryos that inherited a T-DNA from RV027603 was used to regenerate “hemizygous T1 plants”. No artificial chromosome doubling treatment, for example a chemical chromosome doubling treatment or agent, was provided to any of the haploid embryos during the experiment.
To assess the efficacy of in vivo genetic chromosome doubling in response to ZM-ODP2-(266-669) activity, the proportion of regenerated T1 plants capable of producing intact, mature seed was evaluated. The ear of each D0 (T1) plant for both the “null” or “hemizygous” T1 groups were shoot-bagged before silk emergence to avoid any foreign pollen contamination. The silks of the ears for each D0 (T1) plant were self-pollinated with pollen grains collected from the anthers of each D0 (T1) plant. After self-fertilization, the plants were grown to physiological maturity, the ears harvested, and D1 (T2) seed was counted per donor ear from each null and hemizygous plant per group per event. Seed counts for fertile plants were sorted into three categories: a low-range consisting of 1-24 kernels/ear, a medium-range consisting of 25-39 kernels/ear, and a high-range consisting of 40 or more kernels/ear.

| Molecule | fertility rates for self-pollinated D0 plants [1] | average haploid induction rate (Background 2 (X08D492)) [%] | average haploid induction rate [2] [%] | Haploid Induction Rate (%) ([2]; per event) | self-pollinated hemizygous D0/T1 plants that produced 40 or more D1/T2 kernels (unfertilized egg cell; % of the hemizygous T1 group) [%] | average level of fertile hemizygous T1 plants (unfertilized egg cell; hemizygous T1 plants, across 8 events of RV027603, self-pollinated, no artificial chromosome doubling treatment) [%] | level of fertile null T1 plants (produced mature, intact seed) (unfertilized egg cell; null T1 plants lacking T-DNA of RV027603, same 8 events, self-pollinated) | self-pollinated hemizygous D0/T1 plants that produced 40 or more D1/T2 kernels (count) (unfertilized egg cell; of 38 self-pollinated D0/T1 plants) |
| --- | --- | --- | --- | --- | --- | --- | --- | --- |
| COc1cc2c(c(OC)c1OC)-c1ccc(OC)c(=O)cc1[C@@H](NC(C)=O)CC2 [colchicine, (S)-N-(5,6,7,9-tetrahydro-1,2,3,10-tetramethoxy-9-oxobenzo (a)heptalen-7-yl) acetamide] | 15-20% | – | – | – | – | – | – | – |
| B1 | – | 33.9 | 31.3 | – | – | – | – | – |
| B2 | – | 15.1 | 3.5 | 2.5% and 2.4% and 1.9% and 4.8% and 0.6% and 5.0% and 7.0% | 83 | 14.9 | 3.2% and 3.17% | 31 |
